Experimental data published in paper PMC10794148.
Several values for one entry are separate records, joined by “and”; a condition that tells them apart may be missing. Equal values may be shown once.

Experiments:
[1] = biological target: human nucleosome core particle, wild type, unlabelled (human) (UniProt P04908); assay: native gel or EMSA; 50 or 100 nM 147-bp hNCP with 200 or 50 nM mcGAS-CR and 0–1.2 µM MRN; 20 mM HEPES pH 7.5, 50 mM NaCl, 5% sucrose, 1 mM DTT; on ice; gel scanned for mcGAS-CR fluorescence, then ethidium bromide
[2] = biological target: 6×His-Sumo tagged mouse cGAS catalytic domain (UniProt Q8C6L5); assay: TR-FRET competition assay; settings: unlabelled competitor at the highest titrated concentration, est. ~5,000 nM; signal is residual cGAS-biotin-NCP TR-FRET (lower = more competition); parent: est. 0.16; read off a plot
[3] = biological target: 147 bp nucleosome reconstituted with H2B(K125C)-biotin (human) (UniProt P04908); assay: AlphaScreen or HTRF; TR-FRET competition: 15 nM 6×His-Sumo-mcGAS, 2 nM biotin NCP, 4 nM Eu-W1024 streptavidin, 10 nM ULight-anti-6×His; 0–2,000 nM untagged MRN or 0–5,000 nM unlabelled nucleosome; 10 mM Tris-HCl pH 7.5, 50 mM NaCl, 5% glycerol, 0.01% NP-40, 0.01% CHAPS, 5 mM DTT, 100 µg/ml BSA; 1 h at room temperature

For “carboxyrhodamine-labelled mouse cGAS catalytic domain (from UniProt Q8C6L5 141-507) (domain or fragment)”, the stoichiometry N [1] was 1 cGAS per NCP and 2 cGAS per NCP.
“human nucleosome core particle, wild type, unlabelled (from UniProt P04908;P62807;Q71DI3;P62805) H2A:E61A; H2A:E64S; H2A:N68A; H2A:D72S; H2A:N89A; H2A:D90A; H2A:E91S” gave a response (normalized fluorescence) [2] of 0.63.
With “untagged MRN complex (mixture of 2 unlabelled MR:1 NBS1–Flag) (from UniProt P49959 1-708; Q92878 1-1312; O60934 1-754)” the percent reduction of the cGAS–NCP TR-FRET signal at plateau [3] was 50%.
